From paper PMC2566858 (Nucleic Acids Research, 2008)
Read-outs that look alike come from different tables or passages of the source.

Tests used:
Test in all cases: fluorescence anisotropy
[1] = target: T1, rGyr_fl Y851F (full-length reverse gyrase) (Thermotoga maritima, UniProt O51934 1-1104, Y851F)
T1 sequence: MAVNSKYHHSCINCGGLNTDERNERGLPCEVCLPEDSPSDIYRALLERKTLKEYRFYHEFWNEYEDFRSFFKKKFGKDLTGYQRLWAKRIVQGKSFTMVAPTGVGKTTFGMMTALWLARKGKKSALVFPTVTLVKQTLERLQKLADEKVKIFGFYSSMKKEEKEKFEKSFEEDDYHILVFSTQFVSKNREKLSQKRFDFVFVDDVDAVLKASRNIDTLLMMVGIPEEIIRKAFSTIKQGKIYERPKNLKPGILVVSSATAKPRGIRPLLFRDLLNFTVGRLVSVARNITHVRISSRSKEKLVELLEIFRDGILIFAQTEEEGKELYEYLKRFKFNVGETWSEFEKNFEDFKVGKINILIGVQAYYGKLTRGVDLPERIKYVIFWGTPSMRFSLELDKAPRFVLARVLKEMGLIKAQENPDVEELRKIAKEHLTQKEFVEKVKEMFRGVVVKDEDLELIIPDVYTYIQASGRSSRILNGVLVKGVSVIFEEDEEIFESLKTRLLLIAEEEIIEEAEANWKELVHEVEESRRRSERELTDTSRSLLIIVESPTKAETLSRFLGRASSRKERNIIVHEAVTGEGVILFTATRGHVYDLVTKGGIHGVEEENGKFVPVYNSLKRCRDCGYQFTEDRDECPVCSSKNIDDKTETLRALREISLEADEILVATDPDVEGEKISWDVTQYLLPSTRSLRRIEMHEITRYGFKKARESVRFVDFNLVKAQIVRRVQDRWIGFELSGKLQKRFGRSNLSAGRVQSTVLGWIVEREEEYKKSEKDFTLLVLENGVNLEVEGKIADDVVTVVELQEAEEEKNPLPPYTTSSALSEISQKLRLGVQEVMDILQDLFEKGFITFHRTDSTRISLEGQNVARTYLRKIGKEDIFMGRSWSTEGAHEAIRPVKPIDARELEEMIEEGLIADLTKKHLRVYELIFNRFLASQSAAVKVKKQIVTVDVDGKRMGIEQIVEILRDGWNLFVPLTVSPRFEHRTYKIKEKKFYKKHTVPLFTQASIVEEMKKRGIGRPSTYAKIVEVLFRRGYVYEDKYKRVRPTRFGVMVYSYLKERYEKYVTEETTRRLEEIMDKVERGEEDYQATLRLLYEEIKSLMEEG

rGyr_fl K106Q/Y851F [2] = target: T2, rGyr_fl K106Q/Y851F (Thermotoga maritima, UniProt O51934 1-1104, K106Q;Y851F)
T2 sequence: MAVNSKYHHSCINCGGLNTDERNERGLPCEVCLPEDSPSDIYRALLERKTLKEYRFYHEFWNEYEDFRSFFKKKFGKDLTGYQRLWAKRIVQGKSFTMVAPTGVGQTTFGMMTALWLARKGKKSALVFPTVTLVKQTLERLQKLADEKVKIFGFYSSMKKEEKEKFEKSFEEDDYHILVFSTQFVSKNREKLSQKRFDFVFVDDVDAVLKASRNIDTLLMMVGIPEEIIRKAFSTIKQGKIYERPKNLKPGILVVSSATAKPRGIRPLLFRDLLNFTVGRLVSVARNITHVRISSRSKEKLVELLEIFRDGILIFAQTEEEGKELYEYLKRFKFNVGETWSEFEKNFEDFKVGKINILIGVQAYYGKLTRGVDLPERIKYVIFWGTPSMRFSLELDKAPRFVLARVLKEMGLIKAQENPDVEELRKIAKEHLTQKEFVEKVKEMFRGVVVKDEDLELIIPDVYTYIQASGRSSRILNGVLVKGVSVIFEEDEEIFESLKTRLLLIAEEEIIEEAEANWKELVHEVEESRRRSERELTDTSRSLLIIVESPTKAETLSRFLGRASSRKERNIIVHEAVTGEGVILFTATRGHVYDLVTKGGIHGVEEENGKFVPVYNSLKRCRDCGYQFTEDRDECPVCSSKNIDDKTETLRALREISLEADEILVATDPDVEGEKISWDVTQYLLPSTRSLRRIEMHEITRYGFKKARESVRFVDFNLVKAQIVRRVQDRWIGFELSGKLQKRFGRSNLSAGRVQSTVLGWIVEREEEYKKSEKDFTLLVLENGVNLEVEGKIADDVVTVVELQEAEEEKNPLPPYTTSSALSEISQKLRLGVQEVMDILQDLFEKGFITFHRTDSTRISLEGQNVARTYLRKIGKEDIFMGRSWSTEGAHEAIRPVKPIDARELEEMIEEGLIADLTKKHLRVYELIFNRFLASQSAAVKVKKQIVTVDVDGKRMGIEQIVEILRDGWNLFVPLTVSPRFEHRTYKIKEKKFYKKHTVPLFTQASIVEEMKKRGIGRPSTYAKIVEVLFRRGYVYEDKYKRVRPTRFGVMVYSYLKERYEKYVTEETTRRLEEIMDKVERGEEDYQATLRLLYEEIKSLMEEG

rGyr_fl K106Q/Y851F [3] = target: T2, rGyr_fl K106Q/Y851F; remark: listed apart in the source

B1: 60-base ssDNA (ssDNA)
DNA: AAGCCAAGCTTCTAGAGTCAGCCCGTGATATTCATTACTTCTTATCCTAGGATCCCCGTT
With B1 the Kd [1] was 38 ± 2 nM.

B2: 60 bp dsDNA (dsDNA)
DNA 1: AAGCCAAGCTTCTAGAGTCAGCCCGTGATATTCATTACTTCTTATCCTAGGATCCCCGTT
DNA 2: AACGGGGATCCTAGGATAAGAAGTAATGAATATCACGGGCTGACTCTAGAAGCTTGGCTT
For B2, the Kd (rGyr_fl K106Q/Y851F [2]) was 460 ± 70 nM and the Kd (rGyr_fl K106Q/Y851F [3]) was 710 ± 110 nM.
